Data: patent US20060083713A1

B1: LP-48-FLAG fusion polypeptide (human LP-48 / IL-17C, mature, with the FLAG epitope fused to the native C-terminus) (ligand)
chain: HHDPSLRGHPHSHGTPHCYSAEELPLGQAPPHLLARGAKWGQALPVALVSSLEAASHRGRHERPSATTQCPVLRPEEVLEADTHQRSISPWRYRVDTDEDRYPQKLAFAECLCRGCIDARTGRETAALNSVRLLQSLLVLRRRPCSRDGSGLPTPGAFAFHTEFIHVPVGCTCVLPRSVDYKDDDDK

Columns and labels:
[1] = molecular target: LP-48-FLAG fusion polypeptide (human LP-48 / IL-17C, mature, with the FLAG epitope fused to the native C-terminus) (human) (UniProt Q9P0M4); test: HUVEC incubated with 5 ug/ml LP-48, then control antibodies and 125I-protein A (radioimmunoassay)
[2] = molecular target: cell surface of HUVEC (human umbilical vein endothelial cells); LP-48 binding partner not identified (human); test: HUVEC incubated with 5 ug/ml LP-48; bound LP-48 detected with anti-LP-48 antibodies and 125I-protein A (radioimmunoassay)

Molecule | 125I-Protein A Bound (CPM) [1] [CPM] | 125I-Protein A Bound (CPM) [2] [CPM]
control antibodies to an unrelated protein (antibody) | 317 | –
B1 | – | 5630
